Test system: MS2 coat protein
Assay: apparent KD of MS2 coat protein; designed switch direction (-1 OFF switch, 1 ON switch): -1; higher = weaker reporter binding
Outline: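 The buffer was Tris-HCl pH 7.5 with KCl, MgCl2, BSA, DTT, tRNA and Tween-20. In it, SNAP-549-labelled MS2 coat protein was titrated in doubling steps from 0.7 or 1.5 nM to 3 µM over chip-bound RNA switches transcribed by stalled E. coli RNA polymerase on Illumina chips. Apparent KD is the per-design median over clusters of curve fits to normalised fluorescence.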

[1] = Eterna round: R95, input ligand: microRNA oligo, concentration not stated
[2] = Eterna round: R95, input ligand: FMN 200 uM
[3] = Eterna round: R95, input ligand: none
[4] = input ligand: microRNA oligo, concentration not stated

Sequence | apparent KD of MS2 coat protein [1] [nM] | apparent KD of MS2 coat protein (input ligand: FMN 200 uM) [nM] | apparent KD of MS2 coat protein (input ligand: none) [nM] | other results
CAGUACUGAGGAUAUACAUGAGGAUCACCCAUGUGUCCUAGCUAGGAUACUAGCAUUAGUAGAAGGCAGUACUG [Fiskers Ex 3 828 mod 7] (puzzle: Exclusion 3) | 19.8 | – | – | –
CAGUACUGAGGAUAUACAUGAGGAUCACCCAUGUGUCUAAAGUAGGAUACUACUAUUAGUAGAAGGCAGUACUG [Fiskers Ex 3 828 mod 20] (puzzle: Exclusion 3) | 11.3 | – | – | –
CAGUACUGAGGAUAUACAUGAGGAUCACCCAUGUGUUCCAGCUAGGAGACUAGCAUAUGUAGAAGGCAGUACUG [jl-ex3-4.03 salish99 mod] (Eterna round: R97, puzzle: Exclusion 3) | – | 338 | 326 | –
CAGUACUGAGGAUAUACAUGAGGAUCACCCAUGUUCCAAGGCUAGGAAACUAGCAAAAGUAGAAGGCAGUACUG [828 mod 2 m3] (Eterna round: R97, puzzle: Exclusion 3) | – | 472 | 24.5 | –
CAGUAGGCAGGAUAUACAUGAGGAUCACCCAUGUGAUUUAGUGCACGCGUACGUGUACGUAGAAGGGCCUACUG [JL 3.27 m7] (Eterna round: R97, puzzle: Exclusion 3) | – | 91.8 | 17.9 | –
CAUACACAUGAGGAUCACCCAUGUGAGGAUAUGCGUACGUUGUCAGUAGGCGACGUGCGCAGAAGGCGCGUGUU [Mat - Mod of JL D90] (puzzle: Exclusion 1) | 46.3 | – | – | –
CAUACACAUGAGGAUCACCCAUGUGAGGAUAUGCGUACGUUGUCCGUAGGCGACGUGCGCAGAAGGCGCAAGGU [JL-ex1-3.17 Eli mod] (puzzle: Exclusion 1) | 50.4 | – | – | –
CAUACAGUAGUUAGGAUAUUGCAACGUAUACGGAUCGAGAAGGGACAUGAGGAUCACCCAUGUAGAUUGUAAAG [EX-4 Malc #9] (puzzle: Brourd's mod of Exclusion 4) | 34 | – | – | –
CAUACUCAAGUCAGGAUAUAGACUCGGAUACGGAUCUAGAAGGGACAUGAGGAUCACCCAUGUAGAGAGUAAAG [EX-4 Malc #26] (puzzle: Brourd's mod of Exclusion 4) | 28.1 | – | – | apparent KD of MS2 coat protein [2]: 60.9 nM; apparent KD of MS2 coat protein [3]: 25 nM
CAUACUCAAGUGAGGAUAUUGUCUCGGAUACGAAACAAGAAGGCACAUGAGGAUCACCCAUGUAGAGAGUAAAG [EX-4 Malc #30] (puzzle: Brourd's mod of Exclusion 4) | 25.1 | – | – | apparent KD of MS2 coat protein [2]: 136 nM; apparent KD of MS2 coat protein [3]: 25.6 nM
CAUGAGGUAGGAUAUACGAUAAUAUAGGGUAGAUAUAUAACACAUGAGGAUCACCCAUGUAGAAGGACCAGUAG [Mat - Exclusion 2 - Mod of my Tesla design - D67] (puzzle: Exclusion 2) | 29.8 | – | – | –
CAUGAUCUUCGGAUCAUGGACAUGAGGAUCACCCAUGUCACGAGCAGAUCUUCAUGCAAGCUUUUUGCUCGUCUUAU [Sensor v3 - Turn-off variant 1 - 38] (puzzle: Sensor v3, turn-off variant 1) | 405 | – | – | apparent KD of MS2 coat protein [2]: 28 nM; apparent KD of MS2 coat protein [3]: 29.8 nM
CAUGAUCUUCGGAUCAUGUACAUGAGGAUCACCCAUGUGACGAGUUUAUGGGUGAACAAGCUUUUUGCUCGUCUUAU [Sensor v3 - Turn-off variant 1 - 6] (puzzle: Sensor v3, turn-off variant 1) | 11.2 | – | – | apparent KD of MS2 coat protein [2]: 60 nM; apparent KD of MS2 coat protein [3]: 68.9 nM
CAUGAUCUUCGGAUCAUGUACAUGAGGAUCACCCAUGUUACGAGCAGAUUUUCAUACAAGCUUUUUGCUCGUCUUAU [Sensor v3 - Turn-off variant 1 - 31] (puzzle: Sensor v3, turn-off variant 1) | 67.3 | – | – | apparent KD of MS2 coat protein [2]: 27.6 nM; apparent KD of MS2 coat protein [3]: 28.7 nM
CAUGAUUGACGAGGAUAUUGUUCUACAUCACGACGAGAAGGCGUCUGUCACAUGAGGAUCACCCAUGUGAGUCUGGUGAAUGAG [Ex NG1 #82] (Eterna round: R96, puzzle: Exclusion NG 1) | – | 31 | 21.8 | apparent KD of MS2 coat protein [4]: 17.2 nM
CAUGGCUACUAGGAUAUGUCGCGAUGGACGCAAACAGAAGGAGUAACAUGAGGAUCACCCAUGUUGUGACCUAA [Mabiaris] (Eterna round: R97, puzzle: Exclusion 6) | – | 200 | 28.9 | –

Sequence | apparent KD of MS2 coat protein [1] [nM] | apparent KD of MS2 coat protein (input ligand: FMN 200 uM) [nM] | apparent KD of MS2 coat protein (input ligand: none) [nM] | other results
CAUUACUGCAGGCUUCGGGACAUGAGGAUCACCCAUGUUCGUCUUAUUGAUCUAGGUACGCUGACGUACCUAGAUCU [JL-sv1-2.25 Brourd mod] (puzzle: Sensor v3, turn-off variant 1) | 16.1 | – | – | apparent KD of MS2 coat protein [2]: 17.3 nM; apparent KD of MS2 coat protein [3]: 15.6 nM
CAUUAUUAUCGAGGAUAUCCUAUUGUAAUUCUGGGAGAAGGCGGACUCAACAUGAGGAUCACCCAUGUAAGACGGGUACUAGAG [Ex NG1 #23] (Eterna round: R96, puzzle: Exclusion NG 1) | – | 85.1 | 74.8 | apparent KD of MS2 coat protein [4]: 49.3 nM
CAUUCCGAGCGAGGAUAUCAGUAAAAGGGAAGCUGAGAAGGCGCAAACAUGAGGAUCACCCAUGUCACACGCGGGUAGUUUUCC [Ditiso] (Eterna round: R96, puzzle: Exclusion NG 1) | – | 13.9 | 14.3 | apparent KD of MS2 coat protein [4]: 9.74 nM
CAUUCGCAAGGAUAUUAUUGCAGUGACAUGAGGAUCACCCAUGUGUUCGUCAUGCAUCGAUGAGAAGGUGCAAGAC [Orater] (puzzle: Exclusion 5) | 36.4 | – | – | apparent KD of MS2 coat protein [2]: 29.9 nM; apparent KD of MS2 coat protein [3]: 41.2 nM
CAUUGUUAUCGAGGAUAUCGUAUUGAGAUUCUACGAGAAGGCGGACUAAACAUGAGGAUCACCCAUGUGAGACGGAUGCUUGGG [Ex NG1 #32] (Eterna round: R96, puzzle: Exclusion NG 1) | – | 36.7 | 25.7 | apparent KD of MS2 coat protein [4]: 22.3 nM
CCAAGCUGUGUGAGGAUAUGCUGAACCUUGGUUCAGCAGAAGGCACAUGAGGAUCACCCAUGUGAAAAGCUUGG [Mat - Exclusion 4 - JL Mod - D95] (puzzle: Brourd's mod of Exclusion 4) | 15.3 | – | – | –
CCACAUGCAGGAUAUGUAAAAUUUGACAUGAGGAUCACCCAUGUAGAUCCUGAAUUUCCUGCAGAAGGGCAUGUGG [Mat - Exclusion 5 - Eli Mod - D19] (Eterna round: R97, puzzle: Exclusion 5) | – | 605 | 149 | –
CCACGACAUGAGGAUCACCCAUGUGAGGAUAUGGCCUGAAAAGCGUGAGCAGUUUCUAUCAGAAGGCGCGUGGG [salish99_ex1_r4_063] (Eterna round: R97, puzzle: Exclusion 1) | – | 137 | 49.4 | –
CCACGACAUGAGGAUCACCCAUGUGAGGAUAUGGCCUGAAAAGCGUGAGCAGUUUGUAUCAGAAGGCGCGUGGG [salish99_ex1_r4_065] (Eterna round: R97, puzzle: Exclusion 1) | – | 79.1 | 53.8 | –
CCACGUCUGCAGGAUAUCAGAUUGUAAGAUCGAUGAGAAGGGCAGACAUGAGGAUCACCCAUGUCCGCCACCAA [EX6 C.10] (Eterna round: R97, puzzle: Exclusion 6) | – | 20.6 | 20.6 | –
CCACUGUCAGGAUAUCGUGCAUAACGUUUACAUUAUAUGUGCGAGAAGGGACAUGAGGAUCACCCAUGUAAACG [Omei Ex4 A28PK1] (Eterna round: R97, puzzle: Exclusion 4) | – | 604 | 566 | –
CCAGACGUUGUAGGAUAUCUGAAAGGAAGUGUAAGAGAAGGAUAGUGUCUGUAAAACAUGAGGAUCACCCAUGUGGGCGCAUCC [PowerStrip EXNG 1.30] (Eterna round: R96, puzzle: Exclusion NG 1) | – | – | – | apparent KD of MS2 coat protein [4]: 16.7 nM
CCAGCAAAUGUAAGGAUAUGCUGGUCCUUGGAUCAGCAGAAGGUACAUGAGGAUCACCCAUGUGUGAAAGCUGG [Eli bmx4 4.57] (Eterna round: R97, puzzle: Brourd's mod of Exclusion 4) | – | 674 | 166 | –
CCAGCGUAUGUGAGGAUAUGCUGGUCCUUGGAUCAGCAGAAGGCACAUGAGGAUCACCCAUGUGGUGUCGUUGG [JL bmx4 3.45] (puzzle: Brourd's mod of Exclusion 4) | 149 | – | – | –
CCAUAUAACUGAGGAUAUCAUCGCCACUGACGUUGAGAAGGCAGACAUGAGGAUCACCCAUGUGAUUUCUCAAUAUUAUACAUC [Prohibition 79 - Jieux - Exclusion NG 1] (Eterna round: R96, puzzle: Exclusion NG 1) | – | 118 | 40 | apparent KD of MS2 coat protein [4]: 33.8 nM
CCAUCGAGUGUGAGGAUAUGCUGGUCCUUGGAUCAGCAGAAGGCACAUGAGGAUCACCCAUGUGGAUACGGUGG [JL bmx4 3.19] (puzzle: Brourd's mod of Exclusion 4) | 30 | – | – | –
